Reference: publication PMC5562914, “Activation of an anti-bacterial toxin by the biosynthetic enzyme CysK: mechanism of binding, interaction specificity and competition with cysteine synthase” (Scientific Reports, 2017)
Values joined by “and” are separate entries in the source; they are usually repeats but may differ in a detail not shown here. Equal entries are not always repeated.

Columns and labels:
[1] = biological target: CysK from Neisseria lactamica ATCC 23970, His6-tagged (Neisseria lactamica ATCC 23970); experiment: other fluorescence titration; PLP fluorescence emission at 500 nm; HiCysK (300 nM) or NlCysK (860 nM) titrated with CdiA-CT; read after 20 min; binding isotherm (Eq. 1)
[2] = biological target: CysK from Haemophilus influenzae, His6 tag removed with thrombin (Haemophilus influenzae) (UniProt P45040); experiment: as above
[3] = biological target: T1, CdiA-CT toxin domain from uropathogenic Escherichia coli 536, Q0T963; experiment: stopped-flow fluorescence; as a5, CysK concentration varied, 5 C; conditions: other: stopped-flow fluorescence
T1 chain: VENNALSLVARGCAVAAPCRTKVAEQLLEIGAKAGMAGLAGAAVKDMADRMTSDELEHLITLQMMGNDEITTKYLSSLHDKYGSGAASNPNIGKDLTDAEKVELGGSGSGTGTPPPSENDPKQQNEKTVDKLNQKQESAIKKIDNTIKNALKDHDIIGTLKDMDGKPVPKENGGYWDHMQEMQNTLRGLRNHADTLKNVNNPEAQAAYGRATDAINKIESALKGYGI

[4] = biological target: T1, CdiA-CT toxin domain from uropathogenic …; experiment: stopped-flow fluorescence; PLP fluorescence, excitation 412 nm; buffer A; pseudo-first order, 200 nM EcCysK or 270 nM CdiA-CT fixed and the partner varied; 20 C; slope of kobs against concentration; conditions: other: stopped-flow fluorescence
[5] = biological target: T1, CdiA-CT toxin domain from uropathogenic …; experiment: stopped-flow fluorescence; as a5, CysK concentration varied, 37 C; conditions: other: stopped-flow fluorescence
[6] = biological target: T2, E. coli CysK (EcCysK), O-acetyl-L-Ser sulfhydrylase (E. coli, UniProt P0ABK5 1-323, pyridoxal 5'-phosphate (PLP) cofactor); experiment: other fluorescence titration; PLP fluorescence (excitation 412 nm, emission 500 nm); 1 uM EcCysK titrated with CdiA-CT to saturation (stoichiometric titration); 20 C; conditions: both partners purified
T2 construct: CysK of E. coli; the E. coli cysK gene was amplified and ligated to pCH10068 (pSH21::trxA-TEV-cysK) for the purification of untagged EcCysK; not shown: TrxA, N-terminal, cleaved
T2 sequence (looked up): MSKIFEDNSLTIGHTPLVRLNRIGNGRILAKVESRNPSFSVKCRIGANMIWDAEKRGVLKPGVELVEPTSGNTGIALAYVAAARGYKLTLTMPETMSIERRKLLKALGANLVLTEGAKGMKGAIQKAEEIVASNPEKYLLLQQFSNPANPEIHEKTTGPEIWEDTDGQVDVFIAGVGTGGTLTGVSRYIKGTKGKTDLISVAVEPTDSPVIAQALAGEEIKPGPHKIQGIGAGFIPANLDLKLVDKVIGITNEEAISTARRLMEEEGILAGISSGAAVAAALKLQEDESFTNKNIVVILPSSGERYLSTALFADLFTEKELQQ

[7] = biological target: T2, E. coli CysK (EcCysK), O-acetyl-L-Ser …; experiment: inhibition of enzyme activity (sulfhydrylase); 6 nM EcCysK titrated with CdiA-CT; buffer A with 2 mM O-acetyl-L-Ser, 0.6 mM Na2S, 60 nM BSA; Morrison equation gives an apparent IC50, converted to Ki (Eq. 4); conditions: both partners purified
[8] = biological target: T2, E. coli CysK (EcCysK), O-acetyl-L-Ser …; experiment: other fluorescence titration; PLP fluorescence emission at 500 nm; 80 nM EcCysK titrated with CdiA-CT; data read after 20 min; quadratic tight-binding equation (Eq. 2); 20 C; conditions: both partners purified
[9] = biological target: T2, E. coli CysK (EcCysK), O-acetyl-L-Ser …; experiment: inhibition of enzyme activity (sulfhydrylase); as a3 (6 nM EcCysK titrated with CdiA-CT) in the presence of 2.4 uM CdiI; conditions: both partners purified
[10] = biological target: the molecule itself; experiment: SEC; Ultrogel AcA44 column, 0.2 mL/min, buffer A

Molecule: CdiA-CT toxin domain from uropathogenic Escherichia coli 536 (from UniProt Q0T963 3016-3242) (domain or fragment)
- Kd [1]: 6400 nM
- Kd [2]: 3300 nM

B1: E. coli CysK (EcCysK), O-acetyl-L-Ser sulfhydrylase (protein)
chain: MSKIFEDNSLTIGHTPLVRLNRIGNGRILAKVESRNPSFSVKCRIGANMIWDAEKRGVLKPGVELVEPTSGNTGIALAYVAAARGYKLTLTMPETMSIERRKLLKALGANLVLTEGAKGMKGAIQKAEEIVASNPEKYLLLQQFSNPANPEIHEKTTGPEIWEDTDGQVDVFIAGVGTGGTLTGVSRYIKGTKGKTDLISVAVEPTDSPVIAQALAGEEIKPGPHKIQGIGAGFIPANLDLKLVDKVIGITNEEAISTARRLMEEEGILAGISSGAAVAAALKLQEDESFTNKNIVVILPSSGERYLSTALFADLFTEKELQQ
- second-order rate constant k3/Kd (slope of kobs against CysK concentration, 5 °C) [3]: 0.005 ± 0.0003 µM^−1·s^−1 (5 °C)
- second-order rate constant k3/Kd (slope of kobs against protein concentration) [4]: 19000 ± 7000 M⁻¹ s⁻¹ and 17000 ± 7000 M⁻¹ s⁻¹
- second-order rate constant k3/Kd (slope of kobs against CysK concentration, 37 °C) [5]: 0.099 ± 0.019 µM^−1·s^−1 (37 °C)

B2: CdiA-CT toxin domain from uropathogenic Escherichia coli 536 (domain or fragment)
chain: VENNALSLVARGCAVAAPCRTKVAEQLLEIGAKAGMAGLAGAAVKDMADRMTSDELEHLITLQMMGNDEITTKYLSSLHDKYGSGAASNPNIGKDLTDAEKVELGGSGSGTGTPPPSENDPKQQNEKTVDKLNQKQESAIKKIDNTIKNALKDHDIIGTLKDMDGKPVPKENGGYWDHMQEMQNTLRGLRNHADTLKNVNNPEAQAAYGRATDAINKIESALKGYGI
notes: C-terminal toxin domain (CdiA-CT) of CdiA, uropathogenic E. coli 536
- stoichiometry N [6]: 1.1 CdiA-CT:EcCysK
- IC50 [7]: 15.4 ± 0.6 nM
- Ki [7]: 11 ± 0.4 nM
- Kd [8]: 10 ± 11 nM

B3: CdiA-CT in the presence of excess CdiI immunity protein (CdiA-CT:CdiI) (complex)
chain 1: VENNALSLVARGCAVAAPCRTKVAEQLLEIGAKAGMAGLAGAAVKDMADRMTSDELEHLITLQMMGNDEITTKYLSSLHDKYGSGAASNPNIGKDLTDAEKVELGGSGSGTGTPPPSENDPKQQNEKTVDKLNQKQESAIKKIDNTIKNALKDHDIIGTLKDMDGKPVPKENGGYWDHMQEMQNTLRGLRNHADTLKNVNNPEAQAAYGRATDAINKIESALKGYGI
chain 2: MITLRKLIGNINMTKEPEQQSPLELWFERIIDVPLEKLTVEDLCRAIRQNLCIDQLMPRVLEVLTKEPLAGEYYDGELIAALSTIKGEDLKDQKSTFTQIRQLINQLEPSDINDDLRKDILKINQIIV
- Ki [9]: 6.4 ± 0.5 nM

B4: E. coli CysE (EcCysE), serine O-acetyltransferase (enzyme, UniProt P0A9D4 1-273, looked up)
chain: MSCEELEIVWNNIKAEARTLADCEPMLASFYHATLLKHENLGSALSYMLANKLSSPIMPAIAIREVVEEAYAADPEMIASAACDIQAVRTRDPAVDKYSTPLLYLKGFHALQAYRIGHWLWNQGRRALAIFLQNQVSVTFQVDIHPAAKIGRGIMLDHATGIVVGETAVIENDVSILQSVTLGGTGKSGGDRHPKIREGVMIGAGAKILGNIEVGRGAKIGAGSVVLQPVPPHTTAAGVPARIVGKPDSDKPSMDMDQHFNGINHTFEYGDGI
notes: CysE of E. coli; cysE amplified with primers CH3642/CDI235 (the fragment that also gives 'native EcCysE'); not shown: His6-thioredoxin (His6-TrxA), N-terminal, cleaved
- stoichiometry N [10]: 6
